{"source": "the RNAGym collection of RNA variant scans (doi:10.1073/pnas.2313332121)", "parents": {"B1": {"name": "TPR t1 (parent)", "chain": "GACCAAUCUGCCCUCAGAGCUCGAGAACAUCUUCGGAUGCAGAGGAGGCAGGCUUCGGUGGCGCGAUAGCGCCAACGUCCUCAACCUCCAAUGCAUCCCACCACAUGAUGAUGCCUGAAGAGCCUUGGUUUUUUG"}}, "data": [{"variants_of": "B1", "assay": "polymerase ribozyme fitness, log enrichment relative to wild type (log ratio); higher = more active; in vitro selection for triplet polymerase activity", "how_it_was_run": "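Fitness compares each genotype's enrichment to that of the wild type on a logarithmic scale, averaging replicates with inverse-variance weights. The logarithm is base 2. Enrichment came from Illumina sequencing of input and output libraries after one triplicate round of in vitro selection, which included frozen incubation at −7 °C, of PCR-built, transcribed mutant libraries of each subunit of a heterodimeric triplet polymerase ribozyme. Only genotypes with ≥10 input reads and ≥1 read per output were kept.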", "values": [{"variant": "GACCAAUCUGCCCUCAGAGCUCGAGAACAUCUUCGGAUGCAGAGGAGGCAGGCUUCAGUGGCGCGAUAGCGCCAACGUCCUCAACCUCCAAUGCAUCCCACCACAUGAUGAUGCCUGAAGACACUUGGUCUUUUG", "note": "[G57A G122C C123A U130C]", "polymerase ribozyme fitness (log ratio)": -1.47}, {"variant": "GACCAAUCUGCCCUCAGAGCUCGAGAACAUCUUCGGAUGCAGAGGAGGCAGGCUUCAGUGGCGCGAUAGCGCCAACGUCCUCAACCUCCAAUGCAUCCUACCACAUGAUGAUGCCUGAAGAGCCUUGGUUUUUUG", "note": "[G57A C99U]", "polymerase ribozyme fitness (log ratio)": -4.88}, {"variant": "GACCAAUCUGCCCUCAGAGCUCGAGAACAUCUUCGGAUGCAGAGGAGGCAGGCUUCAGUGGCGCGAUAGCGCGAACGUCCUCAACCGCCAAUGCAUCCCACCACAUGAUGAUGCCUGAAGAGCCAUGGUUUUUUG", "note": "[G57A C73G U87G U125A]", "polymerase ribozyme fitness (log ratio)": -1.37}, {"variant": "GACCAAUCUGCCCUCAGAGCUCGAGAACAUCUUCGGAUGCAGAGGAGGCAGGCUUUGGUGGCGCGAUAGCGCCAACGUCCUCAACCUCCAAUGCAUCCCACCACAUGAUGAUGCCUGAAGAGCCUUGGUAUUUUG", "note": "[C56U U130A]", "polymerase ribozyme fitness (log ratio)": 0.174}, {"variant": "GACCAAUCUGCCCUCAGAGCUCGAGAACAUCUUCGGAUGCAGAGGAGGCAGGCUUUGGUGGCGCGAUAGCGCCAACGUCCUCAACCUCCAAUGCAUCCCACCACAUGAUGAUGCCUGAAGAGCCUUGGUCUUUUG", "note": "[C56U U130C]", "polymerase ribozyme fitness (log ratio)": 1.02}, {"variant": "GACCAAUCUGCCCUCAGAGCUCGAGAACAUCUUCGGAUGCAGAGGAGGCAGGCUUUGGUGGCGCGAUAGCGCCAACGUCCUCAACCUCCAAUGCAUCCCACCACAUGAUGAUGCCUGAAGAGCCUUGGUUUUAUG", "note": "[C56U U133A]", "polymerase ribozyme fitness (log ratio)": -0.575}, {"variant": "GACCAAUCUGCCCUCAGAGCUCGAGAACAUCUUCGGAUGCAGAGGAGGCAGGCUUUGGUGGCGCGAUAGCGCCAACGUCCUCAACCUCCAACGCAUCCCACCACAUGAUGAUGCCUGAAGAGCCUUGGUUUUUUG", "note": "[C56U U92C]", "polymerase ribozyme fitness (log ratio)": -0.619}, {"variant": "GACCAAUCUGCCCUCAGAGCUCGAGAACAUCUUCGGAUGCAGAGGAGGCAGGCUUUGGUUGCGCGAUAGCGCCAACGUCCUCAACCACCAAUGCAUCCCACCACAUGAUGAUGCCUGAAGAGCCUUGGUUUUUUG", "note": "[C56U G60U U87A]", "polymerase ribozyme fitness (log ratio)": -3.76}, {"variant": "GACCAAUCUGCCCUCAGAGCUCGAGAACAUCUUCGGAUGCAGAGGAGGCAGGCUUCAGCGGCGCGAUAGCGCCAACGUCCUCAACCUCCAAUGCAUCCCACCACAUGAUGAUGCCUGAACAGCCUUGGUUUAUUG", "note": "[G57A U59C G120C U132A]", "polymerase ribozyme fitness (log ratio)": -0.265}, {"variant": "GACCAAUCUGCCCUCAGAGCUCGAGAACAUCUUCGGAUGCAGAGGAGGCAGGCUUUGGUGGCGCGAUAGCGCCAACGUCCUCAACCUCCAAUGCAUCCCACCACAUGAUGACGCCUCAAUAGCCUUCGUUUAUUG", "note": "[C56U U112C G117C G120U G127C U132A]", "polymerase ribozyme fitness (log ratio)": -4.94}, {"variant": "GACCAAUCUGCCCUCAGAGCUCGAGAACAUCUUCGGAUGCAGAGGAGGCAGGCUUCAGUGGCGCGAUAGCGCCAUCGUCCUCAACCUCCAAUGCACCCCACCACAUGAUGAUGCCUGAAGAGCCUUGGUUCUUUG", "note": "[G57A A75U U96C U131C]", "polymerase ribozyme fitness (log ratio)": -1.53}, {"variant": "GACCAAUCUGCCCUCAGAGCUCGAGAACAUCUUCGGAUGCAGAGGAGGCAGGCUUUGGUGGCGCGAUAGCGCCAACGUCCUCAACCUCCAAUGCAUCCCACCACAUGAUGAUGCCUGAAGAGCCUUGAUUUUUUG", "note": "[C56U G128A]", "polymerase ribozyme fitness (log ratio)": -1.64}, {"variant": "GACCAAUCUGCCCUCAGAGCUCGAGAACAUCUUCGGAUGCAGAGGAGGCAGGCUUUGGUGGCGCGAUAGCGCCAACGUCCUCAACCUCCAAUGCAACCCACCACAAGAUGAUGCCUGAAGAGCCUUGGUUUUUUG", "note": "[C56U U96A U106A]", "polymerase ribozyme fitness (log ratio)": -0.662}, {"variant": "GACCAAUCUGCCCUCAGAGCUCGAGAACAUCUUCGGAUGCAGAGGAGGCAGGCUUUGGUGGCGCGAUAGCGCCAACGUCCUCAACCUCCAAUGCAUCCCACCACAUGAUGAUGCCUAAAGAGCCUUGGUUUUUUG", "note": "[C56U G117A]", "polymerase ribozyme fitness (log ratio)": -1.46}, {"variant": "GACCAAUCUGCCCUCAGAGCUCGAGAACAUCUUCGGAUGCAGAGGAGGCAGGCUUUGGGGGCGCGAUAGCGCCGACGUCCUCAACCUCCAAUGCAUCCCACAACAUGAUGAUGCCUGAAGAGCCUUUGUUUUUUG", "note": "[C56U U59G A74G C102A G127U]", "polymerase ribozyme fitness (log ratio)": -3.57}, {"variant": "GACCAAUCUGCCCUCAGAGCUCGAGAACAUCUUCGGAUGCAGAGGAGGCAGGCUUUGGUGGCGCGAUAGCACCAACGUCCUCAACCUCCAAUGCAUCCCACCACAUGAUGAUGCCUGAAGAGCCUUGGUUUUUUG", "note": "[C56U G71A]", "polymerase ribozyme fitness (log ratio)": -2.84}, {"variant": "GACCAAUCUGCCCUCAGAGCUCGAGAACAUCUUCGGAUGCAGAGGAGGCAGGCUUUGGUGGCGCGAUAGCUCCAACGUCCUCAACCUCCAAUGCAUCCCACCACAUGAUGAUGCCUGAAGAGCCUUGGUUUUUUG", "note": "[C56U G71U]", "polymerase ribozyme fitness (log ratio)": -1.85}, {"variant": "GACCAAUCUGCCCUCAGAGCUCGAGAACAUCUUCGGAUGCAGAGGAGGCAGGCUUCAGUGGCGCGAUAGCGCCAACGCCCUCAACCUCCAAUGCAUCCCACCACAUGAUGAUGCCUGAAGAGCCUUGGUUUUUUG", "note": "[G57A U78C]", "polymerase ribozyme fitness (log ratio)": -1.27}, {"variant": "GACCAAUCUGCCCUCAGAGCUCGAGAACAUCUUCGGAUGCAGAGGAGGCAGGCUUCAGUGGCGCGAUAUCGCCAACGUCCUCAACCUCCAAUGCAUCCCACCACAUGAUGAUGCCUGAAGAGCCUUGGUUUUUUG", "note": "[G57A G69U]", "polymerase ribozyme fitness (log ratio)": -0.426}, {"variant": "GACCAAUCUGCCCUCAGAGCUCGAGAACAUCUUCGGAUGCAGAGGAGGCAGGCUUUGGUGGCGCGAUAGCGCCAACGUCCUCAACCUCCAAUGCAUCCCACCACAUGAUGAUGCCUGAAGAGCCUUGGAUUUUUG", "note": "[C56U U129A]", "polymerase ribozyme fitness (log ratio)": -1.15}, {"variant": "GACCAAUCUGCCCUCAGAGCUCGAGAACAUCUUCGGAUGCAGAGGAGGCAGGCUUCAGUGGCGCGAUAGCGCCAACGUCCUCAACCUCCAAUGCAUCCCACCGCAUGAUGAUGCCUGAAGAGCCUUGGUUUUUUG", "note": "[G57A A103G]", "polymerase ribozyme fitness (log ratio)": -4.05}]}]}
